For assay [1], the target named is T1, recombinant human N-terminal CCR6 Fc (human).
T1 construct: also called human CCR6-Fc; hsCCR6-Nter-Fc
The experiment in a line: SPR (Biacore) off-rate ranking of scFv on the human CCR6 N-terminal Fc fusion. On the technique in general: Surface plasmon resonance follows binding to a sensor surface in real time, without labels.

In assay [2] the target is T2, human CCR6 (human, UniProt P51684 1-374).
T2 construct: Full length human CCR6 on transfected BAF or CHO cells, or native on human PBMCs; also called hsCCR6; CCR6 receptor
T2 sequence: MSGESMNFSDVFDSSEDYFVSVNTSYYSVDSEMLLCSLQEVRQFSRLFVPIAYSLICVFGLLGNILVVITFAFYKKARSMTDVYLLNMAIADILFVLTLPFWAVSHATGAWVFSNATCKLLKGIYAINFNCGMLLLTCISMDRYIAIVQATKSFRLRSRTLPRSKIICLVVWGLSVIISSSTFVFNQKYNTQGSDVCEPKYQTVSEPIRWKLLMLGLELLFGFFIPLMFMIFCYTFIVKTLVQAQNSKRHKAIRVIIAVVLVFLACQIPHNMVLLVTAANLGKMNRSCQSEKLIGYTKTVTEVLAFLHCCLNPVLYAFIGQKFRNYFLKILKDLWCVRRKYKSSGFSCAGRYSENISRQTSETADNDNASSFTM
In words: flow cytometry on BAF cells transfected with human CCR6, hybridoma supernatant, anti-mouse IgG-PE. As for the experimental part:
Antibody titers, specificity and production by hybridomas and recombinant antibody candidates were determined by flow cytometry. Briefly, BAF cells transfected with human CCR6 (Generation of these transfected cells is detailed in example 1) were cultured and 2×10⁵ cells were distributed in a 96 well V bottom plate (TPP, Trasadingen, Switzerland), and centrifuged for three minutes at 1300 rpm; supernatants were discarded, cells were collected and analyzed by flow cytometry as described below. Cells were resuspended in 50 μl of hybridoma supernatant or in 50 μl of FACS buffer (PBS, 2% FBS, 10% Versene (Invitrogen, USA)) with 5 μg/mL of isotype control or commercial mouse anti-human CCR6 antibody (clone 11A9, BD Biosciences, Allschwil, Switzerland). Cells were incubated for 30 minutes on ice, washed two times and resuspended in 50 μl of FACS buffer. An anti-mouse IgG-Phycoerithrin-PE (BD Biosciences, Allschwil, Switzerland) diluted 1/200 was used to detect CCR6-specific mouse hybridoma and the isotype control antibody. Cells were incubated for 15 minutes on ice, washed once, resuspended in 400 μl of FACS buffer and analyzed on the FACS instrument (Cyan, Beckman Coulter International S.A., Nyon, Switzerland).
A general note: In flow cytometry, cells or beads pass a laser one at a time.

Assay [3] deals with T1, recombinant human N-terminal CCR6 Fc. In words: SPR, human CCR6 N-terminal peptide Fc on the chip, FAB as analyte.
The target in assay [4] is T3, recombinant cynomologus N-terminal CCR6 peptide Fc (cynomolgus monkey; human).
T3 construct: It differs from the human construct only in the CCR6 N-terminus; also called Cyno CCR6-Fc; cynoCCR6-Nter-Fc
In words: SPR, cynomolgus CCR6 N-terminal Fc fusion coupled on the sensor chip, FAB as analyte.

The target in assay [5] is T1, recombinant human N-terminal CCR6 Fc. In words: SPR, human CCR6 N-terminal Fc fusion coupled on the sensor chip, FAB as analyte.
For assay [6] the target is unchanged. The experiment in a line: SPR, FAB as analyte, fusion protein coupled onto the sensor chip.
For assay [7], the target named is T3, recombinant cynomologus N-terminal CCR6 …. The description is as above.
Assay [8] shares this target. In words: direct ELISA, Fc fusion coated at 2 µg/ml, anti-human F(ab')2-HRP. On the procedure: (§1) FIG. 8: Direct binding ELISA on immobilized recombinant human N-terminal CCR6 Fc. Binding of humanized 4H11 H5L1 antibody on human N terminus fragment of CCR6 was measured by direct ELISA. Various concentrations (ranging from 10 to 0.00006 μg/ml) of humanized 4H11 H5L1 in IgG1 and IgG4HS backbones were incubated with 2 μg/ml of either recombinant human N terCCR6-Fc tagged protein (FIG. 8A) or recombinant cynomologus N-terminal peptide Fc (FIG. 8B), coated overnight at 4° C. in a 96-well plate. Binding of humanized 4H11 H5L1 antibody to Nter CCR6-Fc protein was detected by horseradish peroxidase (HRP)-conjugated anti-human (Fab)′2-specific antibody.
(§2) A binding ELISA was performed to test the reactivity of 4H11 VH5/VL1 IgG1 and 4H11 VH5/VL1 IgG4HS antibodies on peptides consisting of the N-terminal region of CCR6 from human and cynomologus species. Briefly, 96 well-microtiter plates (Costar USA, distributor VWR AG, Nyon, Switzerland) were coated with 100 μl of recombinant human and cynomologus N-terminus peptide-Fc at 2 μg/ml in PBS. Plates were incubated overnight at 4° C. and were then blocked with PBS 2% BSA (Bovine Serum Albumine, PAA Laboratories, Pasching, Austria) at room temperature (RT) for one hour. The blocking solution was removed and various concentrations of 4H11 VH5/VL1 IgG1 and 4H11 VH5/VL1 IgG4HS were added. The plates were incubated at RT for 1 hour, then washed six times with PBS 0.01% Tween-20 (Sigma-Aldrich Chemie GmbH, Buchs, Switzerland) and a goat-anti human Ig F(ab′)2 fragment specific-HRP (Jackson ImmunoResearch Europe Ltd, Newmarket, UK). After washing, the plates were incubated with TMB substrate (Bio-Rad Laboratories AG, Reinach, Switzerland) to reveal antibody binding. The reaction was stopped by adding 2M H₂SO₄ and the optical density was read at 450 nm (OD 450 nm) on a Synergy HT2 spectrophotometer (Biotek, USA; distributor: WITTEC AG, Littau, Switzerland).
Background: ELISA stands for enzyme-linked immunosorbent assay.

For assay [9], the target named is T1, recombinant human N-terminal CCR6 Fc. Described as above. On the procedure:
as §1, §2

B1: VH5/VL1-L3-G8 scFv variant (scFv)
scFv: EVQLVESGGGLVQPGGSLRLSCAASGFSFSDYYMYWVRQAPGKGLEWVSYITNGGITYYPDSVKGRFTISRDNSKNTLYLQMNSLRAEDTAVYYCTSPLRGAWFAYWGQGTLVTVSSGGGGSGGGGSGGGGSTDVVMTQSPLSLPVTLGQPASISCRSSQSIVHSNGNTYLEWYQQRPGQSPRLLIYKVSNRFSGVPDRFSGSGSGTDFTLKISRVEAEDVGVYYCFQGTYLPLTFGQGTKLEIK
As to B1, the binding result in assay [1] is reported as “binds”.

B2: 4H11 (antibody, V domains shown)
VH: EVKLVESGGGLVQPGGSLKLSCATSGFSFSDYYMYWIRQTPEKRLEWVAYITNGGITYYPDTVKGRFTISRDNAKNTLYLQMSRLRSEDTAMYYCTSPLRGAWFAYWGQGTLVTVSS
VL: DVIMTQSPLSLPVSLGDQASISCRSSQSIVHSNGNTYLEWYLQKPGQSPKLLIYKVSNRFSGVPDRFSGSGSGTDFTLKISRVEAEDLGLYYCFQGSHVPLTFGAGTKLEIK
notes: parent of the chimeric 4H11 antibody m1; also called murine antibody 4H11; hybridoma clone 4H11
Take B2: the binding result in assay [2] is recorded as “binds”.

B3: VH5/VL1 L1-N28T FAB (Fab, V domains shown)
VH: EVQLVESGGGLVQPGGSLRLSCAASGFSFSDYYMYWVRQAPGKGLEWVSYITNGGITYYPDSVKGRFTISRDNSKNTLYLQMNSLRAEDTAVYYCTSPLRGAWFAYWGQGTLVTVSS
VL: DVVMTQSPLSLPVTLGQPASISCRSSQSIVHSTGNTYLEWYQQRPGQSPRLLIYKVSNRFSGVPDRFSGSGSGTDFTLKISRVEAEDVGVYYCFQGSHVPLTFGQGTKLEIKR
notes: CDR-L1 deamidation-site variant; copies: 1 + 1
As to B3, the binding result in assay [3] is recorded as “binds”.

B4: VH5/VL1 FAB (parental) (Fab, V domains shown)
VH: EVQLVESGGGLVQPGGSLRLSCAASGFSFSDYYMYWVRQAPGKGLEWVSYITNGGITYYPDSVKGRFTISRDNSKNTLYLQMNSLRAEDTAVYYCTSPLRGAWFAYWGQGTLVTVSS
VL: DVVMTQSPLSLPVTLGQPASISCRSSQSIVHSNGNTYLEWYQQRPGQSPRLLIYKVSNRFSGVPDRFSGSGSGTDFTLKISRVEAEDVGVYYCFQGSHVPLTFGQGTKLEIK
notes: Human FAB fragment; also called parental FAB; parental VH5/VL1 FAB
In the case of B4, the Kd (usually the concentration at which binding is half-saturated) in assay [4] is 33.6 nM.

B5: VH5/VL1-G8-G29A FAB (Fab, V domains shown)
VH: EVQLVESGGGLVQPGGSLRLSCAASGFSFSDYYMYWVRQAPGKGLEWVSYITNGGITYYPDSVKGRFTISRDNSKNTLYLQMNSLRAEDTAVYYCTSPLRGAWFAYWGQGTLVTVSS
VL: DVVMTQSPLSLPVTLGQPASISCRSSQSIVHSNANTYLEWYQQRPGQSPRLLIYKVSNRFSGVPDRFSGSGSGTDFTLKISRVEAEDVGVYYCFQGTYLPLTFGQGTKLEIK
Regarding B5, the Kd in assay [4] turned out to be 2.19 nM; in assay [5], 1 nM. In assay [6], the “fold improvement in KD value compared to the parental FAB” value was around 20 fold.

B6: VH5/VL1 L1-G29A FAB (Fab, V domains shown)
VH: EVQLVESGGGLVQPGGSLRLSCAASGFSFSDYYMYWVRQAPGKGLEWVSYITNGGITYYPDSVKGRFTISRDNSKNTLYLQMNSLRAEDTAVYYCTSPLRGAWFAYWGQGTLVTVSS
VL: DVVMTQSPLSLPVTLGQPASISCRSSQSIVHSNANTYLEWYQQRPGQSPRLLIYKVSNRFSGVPDRFSGSGSGTDFTLKISRVEAEDVGVYYCFQGSHVPLTFGQGTKLEIK
notes: VH5/VL1 FAB fragment with G29A in CDR-L1
With B6, in [3], the binding result was “binds”.

B7: VH5/VL1-B3C9-G29A FAB (Fab, name in Kabat numbering, V domains shown)
VH: EVQLVESGGGLVQPGGSLRLSCAASGFSFSDYYMYWVRQAPGKGLEWVSYITTGGRTYYPDSVKGRFTISRDNSKNTLYLQMNSLRAEDTAVYYCTSPLRGAWFAYWGQGTLVTVSS
VL: DVVMTQSPLSLPVTLGQPASISCRSSQSIVHSNANTYLEWYQQRPGQSPRLLIYKVSNRFSGVPDRFSGSGSGTDFTLKISRVEAEDVGVYYCFQGTYYPLTFGQGTKLEIK
Regarding B7, the Kd in [4] is 1.23 nM; in assay [5], 0.544 nM; in [7], around 1 nM; in assay [6], around 0.5 nM. The “fold improvement in affinity compared to the parental VH5/VL1 FAB” value in assay [7] is around 30 fold; in [6], around 40 fold. The “fold improvement in KD value over the first pair of FAB constructs” value in assay [6] was 2 fold.

B8: 4H11 VH5/VL1 IgG1 antibody (antibody, V domains shown)
VH: EVQLVESGGGLVQPGGSLRLSCAASGFSFSDYYMYWVRQAPGKGLEWVSYITNGGITYYPDSVKGRFTISRDNSKNTLYLQMNSLRAEDTAVYYCTSPLRGAWFAYWGQGTLVTVSS
VL: DVVMTQSPLSLPVTLGQPASISCRSSQSIVHSNGNTYLEWYQQRPGQSPRLLIYKVSNRFSGVPDRFSGSGSGTDFTLKISRVEAEDVGVYYCFQGSHVPLTFGQGTKLEIKR
notes: also called H5/L1; VH5/VL1 antibody
Take B8: the EC50 (read off the curve) (in general, the concentration at which the effect is half-maximal) was around 0.2 µg/mL in [8] and around 0.07 µg/mL in assay [9].

B9: VH5/VL1-B3G8-G29A FAB (Fab, name in Kabat numbering, V domains shown)
VH: EVQLVESGGGLVQPGGSLRLSCAASGFSFSDYYMYWVRQAPGKGLEWVSYITTGGRTYYPDSVKGRFTISRDNSKNTLYLQMNSLRAEDTAVYYCTSPLRGAWFAYWGQGTLVTVSS
VL: DVVMTQSPLSLPVTLGQPASISCRSSQSIVHSNANTYLEWYQQRPGQSPRLLIYKVSNRFSGVPDRFSGSGSGTDFTLKISRVEAEDVGVYYCFQGTYLPLTFGQGTKLEIK
As for B9, the Kd was 1.17 nM in [4], 0.526 nM in [5], around 1 nM in assay [7] and around 0.5 nM in [6]. The “fold improvement in affinity compared to the parental VH5/VL1 FAB” value is around 30 fold in [7] and around 40 fold in [6]. Further, the “fold improvement in KD value over the first pair of FAB constructs” value in assay [6] stood at 2 fold.

B10: VH5/VL1-C9-G29A FAB (Fab, V domains shown)
VH: EVQLVESGGGLVQPGGSLRLSCAASGFSFSDYYMYWVRQAPGKGLEWVSYITNGGITYYPDSVKGRFTISRDNSKNTLYLQMNSLRAEDTAVYYCTSPLRGAWFAYWGQGTLVTVSS
VL: DVVMTQSPLSLPVTLGQPASISCRSSQSIVHSNANTYLEWYQQRPGQSPRLLIYKVSNRFSGVPDRFSGSGSGTDFTLKISRVEAEDVGVYYCFQGTYYPLTFGQGTKLEIK
In the case of B10, the values for the Kd in assay [4] and in assay [5] were 2.79 nM and 1.28 nM, respectively. In assay [6], the “fold improvement in KD value compared to the parental FAB” value is around 20 fold.

B11: VH5/VL1 L1-N28S FAB (Fab, V domains shown)
VH: EVQLVESGGGLVQPGGSLRLSCAASGFSFSDYYMYWVRQAPGKGLEWVSYITNGGITYYPDSVKGRFTISRDNSKNTLYLQMNSLRAEDTAVYYCTSPLRGAWFAYWGQGTLVTVSS
VL: DVVMTQSPLSLPVTLGQPASISCRSSQSIVHSSGNTYLEWYQQRPGQSPRLLIYKVSNRFSGVPDRFSGSGSGTDFTLKISRVEAEDVGVYYCFQGSHVPLTFGQGTKLEIKR
notes: as for B3
Regarding B11, in [3], the binding result is listed as “binds”.

These data come from patent US20180086836A1 (GLENMARK PHARMACEUTICALS S A, published 2018).
